Laboratory results: the supplement of paper PMC5998384

How the values were obtained:
HeLa Kyoto [1] = assay: thermal stability score vs G1/S (z-score of summed log2 fold changes over temperatures); higher = more thermally stable than in G1/S
HeLa Kyoto [2] = assay: solubility in G1/S (NP-40 vs SDS abundance) (log2 ratio); higher = more soluble; details: cell cycle stage: G1/S
HeLa Kyoto [3] = assay: solubility change mitosis vs G1/S (difference of NP-40 vs SDS log2 ratios) (log2 ratio difference); higher = more soluble in mitosis
HeLa Kyoto [4] = assay: melting temperature (median over replicates), in situ; higher = more thermally stable
[5] = cell cycle stage: early G1 (4.5 h after nocodazole release)
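For melting temperature (median over replicates), in situ in this document: HeLa Kyoto cells synchronized by double thymidine or nocodazole block, proteins quantified by TMT10plex mass spectrometry, three independent biological replicates.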
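For solubility change mitosis vs G1/S (difference of NP-40 vs SDS log2 ratios) in this document: synchronized HeLa Kyoto cells (double thymidine block for G1/S, nocodazole release for mitosis), protein amounts in NP-40 versus SDS lysates quantified by mass spectrometry, three biological replicates.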
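For solubility in G1/S (NP-40 vs SDS abundance) in this document: HeLa Kyoto cells arrested at G1/S by double thymidine block, proteins quantified by TMT10plex mass spectrometry in mild NP-40 versus SDS extracts, three biological replicates.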
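For thermal stability score vs G1/S (z-score of summed log2 fold changes over temperatures) in this document: synchronized HeLa Kyoto cells, proteins quantified by TMT10plex mass spectrometry, three biological replicates, mitosis taken 0.5 h after nocodazole release, G1/S directly after double thymidine block.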

| Sequence | thermal stability score (HeLa Kyoto [1]; [5]) | thermal stability score (HeLa Kyoto [1]; cell cycle stage: mitosis) | solubility in G1/S (log2) (HeLa Kyoto [2]) | solubility change mitosis (log2) (HeLa Kyoto [3]) | melting temperature (HeLa Kyoto [4]; cell cycle stage: G1/S) [°C] | melting temperature (HeLa Kyoto [4]; cell cycle stage: mitosis) [°C] |
| --- | --- | --- | --- | --- | --- | --- |
| MAAALFVLLGFALLGTHGASGAAGFVQAPLSQQRWVGGSVELHCEAVGSPVPEIQWWFEGQGPNDTCSQLWDGARLDRVHIHATYHQHAASTISIDTLVEEDTGTYECRASNDPDRNHLTRAPRVKWVRAQAVVLVLEPGTVFTTVEDLGSKILLTCSLNDSATEVTGHRWLKGGVVLKEDALPGQKTEFKVDSDDQWGEYSCVFLPEPMGTANIQLHGPPRVKAVKSSEHINEGETAMLVCKSESVPPVTDWAWYKITDSEDKALMNGSESRFFVSSSQGRSELHIENLNMEADPGQYRCNGTSSKGSDQAIITLRVRSHLAALWPFLGIVAEVLVLVTIIFIYEKRRKPEDVLDDDDAGSAPLKSSGQHQNDKGKNVRQRNSS [BSG] | -0.849 | -2.75 | 0.205 | -0.00749 | 59.1 | 59.8 |
| MAAALLARASGPARRALCPRAWRQLHTIYQSVELPETHQMLLQTCRDFAEKELFPIAAQVDKEHLFPAAQVKKMGGLGLLAMDVPEELGGAGLDYLAYAIAMEEISRGCASTGVIMSVNNSLYLGPILKFGSKEQKQAWVTPFTSGDKIGCFALSEPGNGSDAGAASTTARAEGDSWVLNGTKAWITNAWEASAAVVFASTDRALQNKGISAFLVPMPTPGLTLGKKEDKLGIRGSSTANLIFEDCRIPKDSILGEPGMGFKIAMQTLDMGRIGIASQALGIAQTALDCAVNYAENRMAFGAPLTKLQVIQFKLADMALALESARLLTWRAAMLKDNKKPFIKEAAMAKLAASEAATAISHQAIQILGGMGYVTEMPAERHYRDARITEIYEGTSEIQRLVIAGHLLRSYRS [ACADS] | -1.85 | -3.37 | 0.191 | -0.159 | 55.3 | 53.9 |
| MAAAVVLAAGLRAARRAVAATGVRGGQVRGAAGVTDGNEVAKAQQATPGGAAPTIFSRILDKSLPADILYEDQQCLVFRDVAPQAPVHFLVIPKKPIPRISQAEEEDQQLLGHLLLVAKQTAKAEGLGDGYRLVINDGKLGAQSVYHLHIHVLGGRQLQWPPG [HINT2] | -0.929 | -2.12 | 0.565 | -0.0342 | 54.9 | 54.9 |
| MAACGRVRRMFRLSAALHLLLLFAAGAEKLPGQGVHSQGQGPGANFVSFVGQAGGGGPAGQQLPQLPQSSQLQQQQQQQQQQQQPQPPQPPFPAGGPPARRGGAGAGGGWKLAEEESCREDVTRVCPKHTWSNNLAVLECLQDVREPENEISSDCNHLLWNYKLNLTTDPKFESVAREVCKSTITEIKECADEPVGKGYMVSCLVDHRGNITEYQCHQYITKMTAIIFSDYRLICGFMDDCKNDINILKCGSIRLGEKDAHSQGEVVSCLEKGLVKEAEEREPKIQVSELCKKAILRVAELSSDDFHLDRHLYFACRDDRERFCENTQAGEGRVYKCLFNHKFEESMSEKCREALTTRQKLIAQDYKVSYSLAKSCKSDLKKYRCNVENLPRSREARLSYLLMCLESAVHRGRQVSSECQGEMLDYRRMLMEDFSLSPEIILSCRGEIEHHCSGLHRKGRTLHCLMKVVRGEKGNLGMNCQQALQTLIQETDPGADYRIDRALNEACESVIQTACKHIRSGDPMILSCLMEHLYTEKMVEDCEHRLLELQYFISRDWKLDPVLYRKCQGDASRLCHTHGWNETSEFMPQGAVFSCLYRHAYRTEEQGRRLSRECRAEVQRILHQRAMDVKLDPALQDKCLIDLGKWCSEKTETGQELECLQDHLDDLVVECRDIVGNLTELESEDIQIEALLMRACEPIIQNFCHDVADNQIDSGDLMECLIQNKHQKDMNEKCAIGVTHFQLVQMKDFRFSYKFKMACKEDVLKLCPNIKKKVDVVICLSTTVRNDTLQEAKEHRVSLKCRRQLRVEELEMTEDIRLEPDLYEACKSDIKNFCSAVQYGNAQIIECLKENKKQLSTRCHQKVFKLQETEMMDPELDYTLMRVCKQMIKRFCPEADSKTMLQCLKQNKNSELMDPKCKQMITKRQITQNTDYRLNPMLRKACKADIPKFCHGILTKAKDDSELEGQVISCLKLRYADQRLSSDCEDQIRIIIQESALDYRLDPQLQLHCSDEISSLCAEEAAAQEQTGQVEECLKVNLLKIKTELCKKEVLNMLKESKADIFVDPVLHTACALDIKHHCAAITPGRGRQMSCLMEALEDKRVRLQPECKKRLNDRIEMWSYAAKVAPADGFSDLAMQVMTSPSKNYILSVISGSICILFLIGLMCGRITKRVTRELKDR [GLG1] | -1.04 | -1.91 | -0.0893 | -0.0491 | 56.3 | 56.5 |
| MAADSEPESEVFEITDFTTASEWERFISKVEEVLNDWKLIGNSLGKPLEKGIFTSGTWEEKSDEISFADFKFSVTHHYLVQESTDKEGKDELLEDVVPQSMQDLLGMNNDFPPRAHCLVRWYGLREFVVIAPAAHSDAVLSESKCNLLLSSVSIALGNTGCQVPLFVQIHHKWRRMYVGECQGPGVRTDFEMVHLRKVPNQYTHLSGLLDIFKSKIGCPLTPLPPVSIAIRFTYVLQDWQQYFWPQQPPDIDALVGGEVGGLEFGKLPFGACEDPISELHLATTWPHLTEGIIVDNDVYSDLDPIQAPHWSVRVRKAENPQCLLGDFVTEFFKICRRKESTDEILGRSAFEEEGKETADITHALSKLTEPASVPIHKLSVSNMVHTAKKKIRKHRGVEESPLNNDVLNTILLFLFPDAVSEKPLDGTTSTDNNNPPSESEDYNLYNQFKSAPSDSLTYKLALCLCMINFYHGGLKGVAHLWQEFVLEMRFRWENNFLIPGLASGPPDLRCCLLHQKLQMLNCCIERKKARDEGKKTSASDVTNIYPGDAGKAGDQLVPDNLKETDKEKGEVGKSWDSWSDSEEEFFECLSDTEELKGNGQESGKKGGPKEMANLRPEGRLYQHGKLTLLHNGEPLYIPVTQEPAPMTEDLLEEQSEVLAKLGTSAEGAHLRARMQSACLLSDMESFKAANPGCSLEDFVRWYSPRDYIEEEVIDEKGNVVLKGELSARMKIPSNMWVEAWETAKPIPARRQRRLFDDTREAEKVLHYLAIQKPADLARHLLPCVIHAAVLKVKEEESLENISSVKKIIKQIISHSSKVLHFPNPEDKKLEEIIHQITNVEALIARARSLKAKFGTEKCEQEEEKEDLERFVSCLLEQPEVLVTGAGRGHAGRIIHKLFVNAQRAAAMTPPEEELKRMGSPEERRQNSVSDFPPPAGREFILRTTVPRPAPYSKALPQRMYSVLTKEDFRLAGAFSSDTSFF [RAB3GAP1] | -0.345 | 0.335 | -0.0664 | -0.113 | 48.9 | 49.4 |
| MAAEKQVPGGGGGGGSGGGGGSGGGGSGGGRGAGGEENKENERPSAGSKANKEFGDSLSLEILQIIKESQQQHGLRHGDFQRYRGYCSRRQRRLRKTLNFKMGNRHKFTGKKVTEELLTDNRYLLLVLMDAERAWSYAMQLKQEANTEPRKRFHLLSRLRKAVKHAEELERLCESNRVDAKTKLEAQAYTAYLSGMLRFEHQEWKAAIEAFNKCKTIYEKLASAFTEEQAVLYNQRVEEISPNIRYCAYNIGDQSAINELMQMRLRSGGTEGLLAEKLEALITQTRAKQAATMSEVEWRGRTVPVKIDKVRIFLLGLADNEAAIVQAESEETKERLFESMLSECRDAIQVVREELKPDQKQRDYILEGEPGKVSNLQYLHSYLTYIKLSTAIKRNENMAKGLQRALLQQQPEDDSKRSPRPQDLIRLYDIILQNLVELLQLPGLEEDKAFQKEIGLKTLVFKAYRCFFIAQSYVLVKKWSEALVLYDRVLKYANEVNSDAGAFKNSLKDLPDVQELITQVRSEKCSLQAAAILDANDAHQTETSSSQVKDNKPLVERFETFCLDPSLVTKQANLVHFPPGFQPIPCKPLFFDLALNHVAFPPLEDKLEQKTKSGLTGYIKGIFGFRS [SRP68] | -0.295 | -0.156 | -0.033 | 0.209 | 50.7 | 49.4 |
| MAAEPLTELEESIETVVTTFFTFARQEGRKDSLSVNEFKELVTQQLPHLLKDVGSLDEKMKSLDVNQDSELKFNEYWRLIGELAKEIRKKKDLKIRKK [S100A13] | -6.56 | -6.62 | -0.421 | 0.294 | 53.4 | 52 |
